Experimental data taken from patent US5811393A (The Childrens Medical Center Corp., priority 1993, dated 1998).

How the values were obtained:
[1] = system: EGF receptors on A-431 cells; test: Competitive [125I]EGF binding to A-431 cells; parameters: species or system human
Description: Competitive binding assays were used to measure this interaction and were performed as follows.

[2] = Heparin affinity chromatography (NaCl elution from immobilized heparin); assay type: binding; conditions: partially purified sample, 0.2-2M NaCl gradient, pH 7.5
Text: Heparin affinity chromatography has been used extensively for purifying and characterizing a variety of these growth factors. Acidic FGF (aFGF) and basic FGF (bFGF) bind to immobilized heparin columns and are eluted with 1.0M to 1.2M NaCl and 1.5M to 1.8M NaCl, respectively (Folkman and Klagsbrun, 235 Science 442, 1987; Lobb et al., 261 J. Biol. Chem. 1924, 1986). Several growth factors which are structurally homologous to aFGF and bFGF also have an affinity for heparin (see, for example, Rubin et al., 86 Proc. Natl. Acad. Sci. USA 802, 1989). PDGF binds to immobilized heparin, but with relatively low affinity, being eluted with only 0.5M NaCl. […] Lobb et al. (261 J. Biol. Chem. 1924, 1986) report the partial purification by heparin affinity of two classes of growth factors mitogenic for endothelial cells. Gospodarowicz et al. (81 Proc. Natl. Acad. Sci. USA 6963, 1984) report the use of heparin affinity in the purification of bovine brain and pituitary fibroblast growth factors. Shing et al. (29 J. Cell Biochem. 275, 1985) report a chondrosarcoma-derived growth factor purified by heparin-Sepharose affinity chromatography and Bio Rex 70 cation exchange chromatography. […]
HB-EHM was purified as follows. Growth factor activity was monitored during the purification procedures using BALB/c mouse 3T3 cells as target cells and measuring [^3 H]-thymidine incorporation into DNA. […]

B1: HB-EHM: novel heparin binding growth factor with EGF-homologous segment, purified from U-937 lymphoma cell conditioned medium, about 22 kD (protein)
chain: RVTLSSKPQALATPNKEEHGKRKKKGKGLGKKRDPCLRKYKDFCIHGECKYVKELRAPSCICHPGYHGERCHGLS
modifications: O-linked glycosylation (suggested by O-glycanase treatment; the threonines predicted at positions 2 and 12 of the form first sequenced were not detected in protein sequencing)
inhibition of the binding of [125I]EGF to A-431 cells ([1]; maximal competition, confluent A-431 cells): ~100%
binding to EGF receptors on A-431 cells ([1]; purified HB-EHM): found to bind
NaCl concentration eluting from the TSK-heparin column [2]: 1 to 1.2 M
